# Laboratory results: the supplement of paper PMC9112550, “Optimization of the antimicrobial peptide Bac7 by deep mutational scanning” (BMC Biology, 2022)
# Tested on: Escherichia coli TOP10
# Assay: shrunken log2 fold change of peptide-encoding DNA abundance (4.5 h post-induction vs induction); higher = less antimicrobial activity (less host growth inhibition)
# Conditions: time post-induction: 4.5 h; library: site-saturation at positions 5, 18, 19, 20
# 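Also: peptides expressed intracellularly from a pBAD plasmid library in pooled LB shake-flask culture, induced with 0.3% L-arabinose, DNA abundance read by NGS, three biological replicates, DESeq2 with apeglm shrinkage.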
row,Sequence,shrunken log2 fold change
1,RRIRDRPPRLPRPRPRPYLQPRP,-0.0926
2,RRIRTRPPRLPRPRPRPCWTPRP,-0.442
3,RRIRFRPPRLPRPRPRPLLNPRP,-0.549
4,RRIRGRPPRLPRPRPRPHAYPRP,2.11
5,RRIRDRPPRLPRPRPRPIPNPRP,0.0139
6,RRIRARPPRLPRPRPRPSEPPRP,0.11
7,RRIRERPPRLPRPRPRPHTFPRP,-0.14
8,RRIRPRPPRLPRPRPRPHTVPRP,-0.214
9,RRIRGRPPRLPRPRPRPQCLPRP,0.405
10,RRIRIRPPRLPRPRPRPVRWPRP,0.474
11,RRIRSRPPRLPRPRPRPRFWPRP,0.269
12,RRIRPRPPRLPRPRPRPLTCPRP,-0.191
13,RRIRHRPPRLPRPRPRPNIMPRP,-0.596
14,RRIRVRPPRLPRPRPRPDGQPRP,-0.0901
15,RRIRSRPPRLPRPRPRPALMPRP,0.323
16,RRIRARPPRLPRPRPRPSRPPRP,0.612
17,RRIRYRPPRLPRPRPRPFAKPRP,-0.623
18,RRIRARPPRLPRPRPRPLWYPRP,-0.278
19,RRIRMRPPRLPRPRPRPGFAPRP,1.35
20,RRIRYRPPRLPRPRPRPKQNPRP,-0.473
21,RRIRFRPPRLPRPRPRPFSIPRP,-0.401
22,RRIRPRPPRLPRPRPRPELKPRP,0.0877
23,RRIRERPPRLPRPRPRPYACPRP,-0.0634
24,RRIRARPPRLPRPRPRPHHTPRP,-0.364
25,RRIRWRPPRLPRPRPRPESLPRP,0.412

row,Sequence,shrunken log2 fold change
1,RRIRVRPPRLPRPRPRPEEAPRP,0.26
2,RRIRVRPPRLPRPRPRPWIWPRP,0.00605
3,RRIRYRPPRLPRPRPRPQEPPRP,-0.273
4,RRIRCRPPRLPRPRPRPKLTPRP,-0.223
5,RRIRCRPPRLPRPRPRPELWPRP,0.732
6,RRIRARPPRLPRPRPRPTHCPRP,0.518
7,RRIRWRPPRLPRPRPRPYAMPRP,0.0576
8,RRIRFRPPRLPRPRPRPHKCPRP,-0.106
9,RRIRTRPPRLPRPRPRPCDEPRP,-0.0429
10,RRIRTRPPRLPRPRPRPTGLPRP,-0.0841
11,RRIRTRPPRLPRPRPRPAFVPRP,-0.163
12,RRIRSRPPRLPRPRPRPDMDPRP,-0.201
13,RRIRVRPPRLPRPRPRPNAYPRP,-0.572
14,RRIRPRPPRLPRPRPRPYYCPRP,-0.718
15,RRIRKRPPRLPRPRPRPRKMPRP,0.588
16,RRIRSRPPRLPRPRPRPMWTPRP,-0.0682
17,RRIRARPPRLPRPRPRPYCWPRP,-0.258
18,RRIRIRPPRLPRPRPRPPNLPRP,-0.188
19,RRIRQRPPRLPRPRPRPLFGPRP,0.107
20,RRIRSRPPRLPRPRPRPRSKPRP,0.0951
21,RRIRARPPRLPRPRPRPRYWPRP,0.213
22,RRIRCRPPRLPRPRPRPFIWPRP,-0.717
23,RRIRLRPPRLPRPRPRPDSTPRP,-0.603
24,RRIRRRPPRLPRPRPRPKDKPRP,0.239
25,RRIRCRPPRLPRPRPRPSIRPRP,-0.608

row,Sequence,shrunken log2 fold change
1,RRIRMRPPRLPRPRPRPRSGPRP,0.815
2,RRIRTRPPRLPRPRPRPMYTPRP,-0.156
3,RRIRSRPPRLPRPRPRPLMAPRP,0.000235
4,RRIRIRPPRLPRPRPRPCITPRP,-0.0326
5,RRIRMRPPRLPRPRPRPCCWPRP,0.787
6,RRIRQRPPRLPRPRPRPNPAPRP,0.17
7,RRIRGRPPRLPRPRPRPWDQPRP,0.432
8,RRIRFRPPRLPRPRPRPVRCPRP,0.308
9,RRIRWRPPRLPRPRPRPGYHPRP,-0.263
10,RRIRMRPPRLPRPRPRPENCPRP,0.0159
11,RRIRCRPPRLPRPRPRPHIIPRP,-0.11
12,RRIRMRPPRLPRPRPRPVQCPRP,-0.0134
13,RRIRHRPPRLPRPRPRPGGPPRP,-0.355
14,RRIRRRPPRLPRPRPRPDCIPRP,0.0761
15,RRIRQRPPRLPRPRPRPQMVPRP,0.00426
16,RRIRQRPPRLPRPRPRPITTPRP,-0.0809
17,RRIRVRPPRLPRPRPRPYDEPRP,-0.0163
18,RRIRQRPPRLPRPRPRPGTYPRP,0.00894
19,RRIRHRPPRLPRPRPRPRFEPRP,0.185
20,RRIRARPPRLPRPRPRPFYLPRP,-0.515
21,RRIRERPPRLPRPRPRPMNYPRP,-0.981
22,RRIRQRPPRLPRPRPRPAGNPRP,-0.0449
23,RRIRYRPPRLPRPRPRPIFGPRP,-0.281
24,RRIRQRPPRLPRPRPRPYDEPRP,-0.00145
25,RRIRTRPPRLPRPRPRPMDGPRP,-0.123

row,Sequence,shrunken log2 fold change
1,RRIRSRPPRLPRPRPRPPHEPRP,0.229
2,RRIRPRPPRLPRPRPRPNVGPRP,0.0392
3,RRIRSRPPRLPRPRPRPVMNPRP,0.0346
4,RRIRMRPPRLPRPRPRPTKPPRP,0.0618
5,RRIRCRPPRLPRPRPRPYVHPRP,-1.53
6,RRIRCRPPRLPRPRPRPKMFPRP,-0.265
7,RRIRWRPPRLPRPRPRPPEKPRP,0.269
8,RRIRHRPPRLPRPRPRPALRPRP,0.269
9,RRIRKRPPRLPRPRPRPYGEPRP,0.0585
10,RRIRERPPRLPRPRPRPLDHPRP,-0.155
11,RRIRCRPPRLPRPRPRPEYIPRP,-0.144
12,RRIRWRPPRLPRPRPRPAYVPRP,0.0521
13,RRIRIRPPRLPRPRPRPCWEPRP,-0.0815
14,RRIRNRPPRLPRPRPRPCQIPRP,-0.0177
15,RRIRDRPPRLPRPRPRPHQIPRP,-0.248
16,RRIRWRPPRLPRPRPRPLHQPRP,0.0809
17,RRIRCRPPRLPRPRPRPMIFPRP,-0.369
18,RRIRPRPPRLPRPRPRPTGTPRP,0.104
19,RRIRARPPRLPRPRPRPHSWPRP,0.475
20,RRIRNRPPRLPRPRPRPYADPRP,-0.161
21,RRIRCRPPRLPRPRPRPQMGPRP,-0.273
22,RRIRQRPPRLPRPRPRPMSCPRP,0.029
23,RRIRSRPPRLPRPRPRPWCVPRP,-0.22
24,RRIRERPPRLPRPRPRPPMNPRP,-0.82
25,RRIRDRPPRLPRPRPRPESLPRP,1.01

row,Sequence,shrunken log2 fold change
1,RRIRVRPPRLPRPRPRPKQIPRP,-0.0455
2,RRIRRRPPRLPRPRPRPNKRPRP,-0.0621
3,RRIRYRPPRLPRPRPRPQSGPRP,-0.223
4,RRIRFRPPRLPRPRPRPTKCPRP,0.0225
5,RRIRERPPRLPRPRPRPEMPPRP,0.112
6,RRIRWRPPRLPRPRPRPIKDPRP,0.211
7,RRIRHRPPRLPRPRPRPDLRPRP,0.0039
8,RRIRGRPPRLPRPRPRPIWKPRP,0.155
9,RRIRARPPRLPRPRPRPWAVPRP,0.295
10,RRIRDRPPRLPRPRPRPDCNPRP,0.685
11,RRIRGRPPRLPRPRPRPYLSPRP,-0.0512
12,RRIRCRPPRLPRPRPRPCCMPRP,-0.392
13,RRIRRRPPRLPRPRPRPPCNPRP,0.36
14,RRIRGRPPRLPRPRPRPDKVPRP,0.32
15,RRIRFRPPRLPRPRPRPHWSPRP,-0.54
16,RRIRFRPPRLPRPRPRPQLVPRP,-0.117
17,RRIRTRPPRLPRPRPRPKQVPRP,-0.0584
18,RRIRGRPPRLPRPRPRPEFSPRP,1.15
19,RRIRMRPPRLPRPRPRPDCMPRP,2.24
20,RRIRVRPPRLPRPRPRPFHVPRP,-0.262
21,RRIRLRPPRLPRPRPRPNSQPRP,-0.32
22,RRIRTRPPRLPRPRPRPRVVPRP,1.87
23,RRIRPRPPRLPRPRPRPTVFPRP,0.0272
24,RRIRNRPPRLPRPRPRPMMMPRP,-0.0535
25,RRIRERPPRLPRPRPRPRQKPRP,0.0386
